# Experimental data from patent publication US20210230294A1 (Incyte, published 2021).
# T1: mouse CD73 (SEQ ID NO:71) (mouse, UniProt Q61503 29-551)
# T1 construct: Open conformation (normal SPR running buffer); also called Murine; murine CD73
# T1 sequence: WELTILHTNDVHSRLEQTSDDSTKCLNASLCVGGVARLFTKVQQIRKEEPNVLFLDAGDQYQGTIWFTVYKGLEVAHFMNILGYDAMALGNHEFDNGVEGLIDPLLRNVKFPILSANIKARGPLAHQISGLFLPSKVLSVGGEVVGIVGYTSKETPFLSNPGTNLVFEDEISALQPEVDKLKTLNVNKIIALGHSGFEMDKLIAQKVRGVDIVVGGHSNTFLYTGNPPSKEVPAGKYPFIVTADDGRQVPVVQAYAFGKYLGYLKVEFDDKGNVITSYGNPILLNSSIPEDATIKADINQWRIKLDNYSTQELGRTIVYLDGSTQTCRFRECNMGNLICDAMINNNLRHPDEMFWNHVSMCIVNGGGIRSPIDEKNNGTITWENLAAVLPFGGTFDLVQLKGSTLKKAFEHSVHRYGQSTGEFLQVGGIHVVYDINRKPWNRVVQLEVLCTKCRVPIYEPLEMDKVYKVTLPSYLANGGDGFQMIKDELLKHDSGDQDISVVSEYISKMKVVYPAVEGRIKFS
# T2: recombinant human CD73 (SEQ ID NO:70) (human, UniProt P21589 27-549)
# T2 construct: Soluble recombinant protein in normal SPR running buffer (open conformation), the soluble enzyme assay and HDX-MS; SPR stock bought from BPS Bioscience; also called rhuCD73; CD73 in the open conformation
# T2 sequence: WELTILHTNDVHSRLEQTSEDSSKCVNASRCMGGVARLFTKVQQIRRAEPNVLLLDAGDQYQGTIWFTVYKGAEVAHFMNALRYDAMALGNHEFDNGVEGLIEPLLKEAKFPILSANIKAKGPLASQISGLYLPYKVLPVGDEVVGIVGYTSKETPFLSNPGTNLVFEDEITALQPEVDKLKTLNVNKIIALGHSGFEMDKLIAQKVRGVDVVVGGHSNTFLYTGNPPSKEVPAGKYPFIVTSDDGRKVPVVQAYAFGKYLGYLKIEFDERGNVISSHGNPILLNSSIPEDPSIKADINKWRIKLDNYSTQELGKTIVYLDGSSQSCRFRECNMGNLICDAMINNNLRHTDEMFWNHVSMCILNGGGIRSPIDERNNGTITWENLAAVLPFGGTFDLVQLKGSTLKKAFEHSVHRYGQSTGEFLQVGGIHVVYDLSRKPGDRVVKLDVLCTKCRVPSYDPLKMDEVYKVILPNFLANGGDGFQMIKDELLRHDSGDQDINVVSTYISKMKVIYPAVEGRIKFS
# T3: cynomolgus CD73 (SEQ ID NO:72) (cynomolgus, UniProt P21589 27-549 (human entry))
# T3 construct: Open conformation (normal SPR running buffer)
# T3 chain: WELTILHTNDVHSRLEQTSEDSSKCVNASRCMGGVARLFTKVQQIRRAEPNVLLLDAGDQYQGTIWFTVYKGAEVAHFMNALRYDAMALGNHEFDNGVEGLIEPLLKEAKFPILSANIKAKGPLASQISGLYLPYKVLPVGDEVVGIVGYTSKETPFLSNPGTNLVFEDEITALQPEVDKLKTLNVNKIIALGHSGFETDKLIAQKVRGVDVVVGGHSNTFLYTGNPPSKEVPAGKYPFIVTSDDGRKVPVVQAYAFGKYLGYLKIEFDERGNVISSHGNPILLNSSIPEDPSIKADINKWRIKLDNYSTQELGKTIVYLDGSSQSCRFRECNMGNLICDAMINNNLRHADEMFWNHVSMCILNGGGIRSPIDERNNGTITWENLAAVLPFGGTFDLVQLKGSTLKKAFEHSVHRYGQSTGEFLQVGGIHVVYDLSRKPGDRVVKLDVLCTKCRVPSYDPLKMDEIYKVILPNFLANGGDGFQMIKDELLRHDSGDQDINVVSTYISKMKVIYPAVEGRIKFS
# Target: T1, mouse CD73 (SEQ ID NO:71)
# Assay: SPR (Biacore 8K), antibody captured on anti-human Fc, CD73 as analyte, open conformation
# Method: (§1) The SPR running buffer (10 mM HEPES, 150 mM NaCl, 3 mM EDTA and 0.05% v/v Surfactant P20, pH 7.4) was prepared from 10×HBS-EP Buffer (GE Healthcare). Anti-human Fc antibodies (GE Healthcare) were immobilized via amine coupling on all sixteen flow cells of an S series sensor chip CM5 (GE Healthcare). The immobilization levels were ˜9000 RU for all flow cells. […] The non-cleavable ADP analogue APCP (adenosine-5′-(α,β-methylene) diphosphate) with the presence of Zn²⁺ can be used to shift the CD73 conformational equilibrium from open towards closed. Therefore, recombinant CD73 was incubated with SPR running buffer in the presence of 100 μM APCP and 10 μM ZnCl₂ (closed SPR running buffer) to study the binding of anti-CD73 antibody to the CD73 in the closed conformation. To achieve this, the ABA injection feature in Biacore 8K was used. For open conformation, the ABA injection sequence started with 60 seconds injection of running buffer. Then, CD73 3-fold serial dilution concentration series prepared from CD73 stock (BPS Bioscience) and running buffer were injected for 180 seconds immediately followed by running buffer for 240 seconds. For closed conformation, the normal SPR running buffer was replaced by closed SPR running buffer. Surface was regenerated with 30 seconds injection of 3 M MgCl₂.
row,Binder,binding result
1,"HzCL25 (antibody, human IgG1, kappa, N297A, V domains shown, Humanized IgG1/kappa with N297A; also called humanized CL25) VH: EVQLVQSGAEVKKPGESLKISCKGSGYTFTSYGLSWVRQMPGKGLEWMGEIYPGSGNTYYNEKFKGQVTISADKSISTAYLQWSSLKASDTAMYYCARYDYLGSSYGFDYWGAGTTVTVSS VL: DIVMTQSPDSLAVSLGERATINCKASQDVSTAVAWYQQKPGQPPKLLIYSASYRYSGVPDRFSGSGSGTDFTLTISSLQAEDVAVYYCQQHYNTPYTFGGGTKLEIKR",no binding

# Target: T2, recombinant human CD73 (SEQ ID NO:70)
# Assay: as above
# Method: as §1
Binder,Kd [nM],koff [s⁻¹],kon [M⁻¹ s⁻¹]
"HzCL25 (antibody, human IgG1, kappa, N297A, V domains shown, Humanized IgG1/kappa with N297A; also called humanized CL25) VH: EVQLVQSGAEVKKPGESLKISCKGSGYTFTSYGLSWVRQMPGKGLEWMGEIYPGSGNTYYNEKFKGQVTISADKSISTAYLQWSSLKASDTAMYYCARYDYLGSSYGFDYWGAGTTVTVSS VL: DIVMTQSPDSLAVSLGERATINCKASQDVSTAVAWYQQKPGQPPKLLIYSASYRYSGVPDRFSGSGSGTDFTLTISSLQAEDVAVYYCQQHYNTPYTFGGGTKLEIKR",< 0.449,0.000449,> 1e+06
"CL25_hu_8-4 (antibody, V domains shown, Humanized CL25 antibody; captured by anti-human Fc in SPR) VH: QVQLVQSGAEVKKPGASVKVSCKASGYTFTSYGLSWVRQATGQGLEWMGEIYPGSGNTYYNEKFKGRVTMTRNTSISTAYMELSSLRSEDTAVYYCARYDYLGSSYGFDYWGAGTTVTVSS VL: DIQMTQSPSSLSASVGDRVTITCKASQDVSTAVAWYQQKPGKAPKLLLYSASYRYSGVPSRFSGSGSGTDYTLTISSLQPEDFATYYCQQHYNTPYTFGGGTKLEIK",2.29,0.00176,770000
"CL25_hu_9-6 (antibody, V domains shown, Humanized CL25 antibody) VH: QVQLVQSGAEVKKPGSSVKVSCKASGYTFTSYGLSWVRQAPGQGLEWMGEIYPGSGNTYYNEKFKGRVTITADESTSTAYMELSSLRSEDTAVYYCARYDYLGSSYGFDYWGAGTTVTVSS VL: AIRMTQSPSSFSASTGDRVTITCKASQDVSTAVAWYQQKPGKAPKLLIYSASYRYSGVPSRFSGSGSGTDFTLTISCLQSEDFATYYCQQHYNTPYTFGGGTKLEIK",2.25,0.000953,424000
"CL25_hu_11-5 (antibody, V domains shown, Humanized CL25 antibody) VH: QVQLVQSGAEVKKPGASVKVSCKASGYTFTSYGLSWVRQATGQGLEWMGEIYPGSGNTYYNEKFKGRVTMTANTSISTAYMELSSLRSEDTAVYYCARYDYLGSSYGFDYWGAGTTVTVSS VL: DIVMTQSPDSLAVSLGERATINCKASQDVSTAVAWYQQKPGQPPKLLIYSASYRYSGVPDRFSGSGSGTDFTLTISSLQAEDVAVYYCQQHYNTPYTFGGGTKLEIK",1.46,0.00117,799000
"CL25_hu_10-4 (antibody, V domains shown, Humanized CL25 antibody) VH: EVQLVQSGAEVKKPGESLKISCKGSGYTFTSYGLSWVRQMPGKGLEWMGEIYPGSGNTYYNEKFKGQVTISADKSISTAYLQWSSLKASDTAMYYCARYDYLGSSYGFDYWGAGTTVTVSS VL: DIQMTQSPSSLSASVGDRVTITCKASQDVSTAVAWYQQKPGKAPKLLLYSASYRYSGVPSRFSGSGSGTDYTLTISSLQPEDFATYYCQQHYNTPYTFGGGTKLEIK",1.2,0.00107,887000
"CL25_hu_9-5 (antibody, V domains shown, Humanized CL25 antibody) VH: QVQLVQSGAEVKKPGSSVKVSCKASGYTFTSYGLSWVRQAPGQGLEWMGEIYPGSGNTYYNEKFKGRVTITADESTSTAYMELSSLRSEDTAVYYCARYDYLGSSYGFDYWGAGTTVTVSS VL: DIVMTQSPDSLAVSLGERATINCKASQDVSTAVAWYQQKPGQPPKLLIYSASYRYSGVPDRFSGSGSGTDFTLTISSLQAEDVAVYYCQQHYNTPYTFGGGTKLEIK",2.02,0.00114,565000
"CL25_hu_8-5 (antibody, V domains shown, Humanized CL25 antibody) VH: QVQLVQSGAEVKKPGASVKVSCKASGYTFTSYGLSWVRQATGQGLEWMGEIYPGSGNTYYNEKFKGRVTMTRNTSISTAYMELSSLRSEDTAVYYCARYDYLGSSYGFDYWGAGTTVTVSS VL: DIVMTQSPDSLAVSLGERATINCKASQDVSTAVAWYQQKPGQPPKLLIYSASYRYSGVPDRFSGSGSGTDFTLTISSLQAEDVAVYYCQQHYNTPYTFGGGTKLEIK",0.718,0.000949,> 1e+06
"CL25_hu_11-6 (antibody, V domains shown, Humanized CL25 antibody) VH: QVQLVQSGAEVKKPGASVKVSCKASGYTFTSYGLSWVRQATGQGLEWMGEIYPGSGNTYYNEKFKGRVTMTANTSISTAYMELSSLRSEDTAVYYCARYDYLGSSYGFDYWGAGTTVTVSS VL: AIRMTQSPSSFSASTGDRVTITCKASQDVSTAVAWYQQKPGKAPKLLIYSASYRYSGVPSRFSGSGSGTDFTLTISCLQSEDFATYYCQQHYNTPYTFGGGTKLEIK",1.84,0.00101,550000
"CL25_hu_10-6 (antibody, V domains shown, Humanized CL25 antibody) VH: EVQLVQSGAEVKKPGESLKISCKGSGYTFTSYGLSWVRQMPGKGLEWMGEIYPGSGNTYYNEKFKGQVTISADKSISTAYLQWSSLKASDTAMYYCARYDYLGSSYGFDYWGAGTTVTVSS VL: AIRMTQSPSSFSASTGDRVTITCKASQDVSTAVAWYQQKPGKAPKLLIYSASYRYSGVPSRFSGSGSGTDFTLTISCLQSEDFATYYCQQHYNTPYTFGGGTKLEIK",1.75,0.00092,524000
"CL25_hu_9-4 (antibody, V domains shown, Humanized CL25 antibody) VH: QVQLVQSGAEVKKPGSSVKVSCKASGYTFTSYGLSWVRQAPGQGLEWMGEIYPGSGNTYYNEKFKGRVTITADESTSTAYMELSSLRSEDTAVYYCARYDYLGSSYGFDYWGAGTTVTVSS VL: DIQMTQSPSSLSASVGDRVTITCKASQDVSTAVAWYQQKPGKAPKLLLYSASYRYSGVPSRFSGSGSGTDYTLTISSLQPEDFATYYCQQHYNTPYTFGGGTKLEIK",6.9,0.00264,382000
"CL25_hu_8-6 (antibody, V domains shown, Humanized CL25 antibody) VH: QVQLVQSGAEVKKPGASVKVSCKASGYTFTSYGLSWVRQATGQGLEWMGEIYPGSGNTYYNEKFKGRVTMTRNTSISTAYMELSSLRSEDTAVYYCARYDYLGSSYGFDYWGAGTTVTVSS VL: AIRMTQSPSSFSASTGDRVTITCKASQDVSTAVAWYQQKPGKAPKLLIYSASYRYSGVPSRFSGSGSGTDFTLTISCLQSEDFATYYCQQHYNTPYTFGGGTKLEIK",1.55,0.00111,715000

# Target: T3, cynomolgus CD73 (SEQ ID NO:72)
# Assay: as above
# Method: as §1
Binder,Kd [nM],koff [s⁻¹],kon [M⁻¹ s⁻¹]
"HzCL25 (antibody, human IgG1, kappa, N297A, V domains shown, Humanized IgG1/kappa with N297A; also called humanized CL25) VH: EVQLVQSGAEVKKPGESLKISCKGSGYTFTSYGLSWVRQMPGKGLEWMGEIYPGSGNTYYNEKFKGQVTISADKSISTAYLQWSSLKASDTAMYYCARYDYLGSSYGFDYWGAGTTVTVSS VL: DIVMTQSPDSLAVSLGERATINCKASQDVSTAVAWYQQKPGQPPKLLIYSASYRYSGVPDRFSGSGSGTDFTLTISSLQAEDVAVYYCQQHYNTPYTFGGGTKLEIKR",< 0.468,0.000468,> 1e+06
